The values that follow come from the supplement of paper PMC10567573.

The chains are these.
B1: ZNF511 (parent)
chain: YEHHYHTLHGNVCSFCKRAFPSGH
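Note: lentivirally expressed fusions sorted by FACS into six bins by GFP to DsRed ratio, PSI derived from sequencing read proportions per bin multiplied by bin number.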

This series covers variants of B1. Description: protein stability index of a GFP-peptide fusion (GPS, HEK-293T) (PSI 1-6); higher = more stable. Particulars: c terminus: a fixed tail appended.
YEHHHHTLHGNVCSFCKRAFPSGH: the protein stability index worked out at 3.22. In the case of YEHHMHTLHGNVCSFCKRAFPSGH, the protein stability index is 2.39. Consider YEHHIHTLHGNVCSFCKRAFPSGH, for which the protein stability index was 2.68. For YEHHVHTLHGNVCSFCKRAFPSGH, the protein stability index turned out to be 3.47.

Take YEHHDHTLHGNVCSFCKRAFPSGH: the protein stability index was determined as 3.51.

On to YEHHPHTLHGNVCSFCKRAFPSGH, for which the protein stability index came to 3.04.

As to YEHHKHTLHGNVCSFCKRAFPSGH, the protein stability index was 2.54.

For the variant YEHHGHTLHGNVCSFCKRAFPSGH, the protein stability index amounted to 3.54.

For the variant YEHHFHTLHGNVCSFCKRAFPSGH, the protein stability index is 2.29. With YEHHEHTLHGNVCSFCKRAFPSGH the figure was 3.85. On to YEHHNHTLHGNVCSFCKRAFPSGH, for which the protein stability index came out at 3.01. For YEHHWHTLHGNVCSFCKRAFPSGH the value was 2.32; for YEHHLHTLHGNVCSFCKRAFPSGH, 2.48.

Consider YEHHRHTLHGNVCSFCKRAFPSGH, for which the protein stability index was 2.62.

Consider YEHHSHTLHGNVCSFCKRAFPSGH, for which the protein stability index was determined as 3.01. With YEHHTHTLHGNVCSFCKRAFPSGH the figure was 3.67; with YEHHCHTLHGNVCSFCKRAFPSGH, 3.95. As for YEHHQHTLHGNVCSFCKRAFPSGH, the protein stability index came out at 3.28. With YEHHAHTLHGNVCSFCKRAFPSGH the figure was 2.81. For YVHHYHTLHGNVCSFCKRAFPSGH, the protein stability index is 2.89. With YHHHYHTLHGNVCSFCKRAFPSGH, the protein stability index was 2.66. YMHHYHTLHGNVCSFCKRAFPSGH: the protein stability index was 2.08. With YTHHYHTLHGNVCSFCKRAFPSGH the figure was 3.14; with YAHHYHTLHGNVCSFCKRAFPSGH, 3.31; with YLHHYHTLHGNVCSFCKRAFPSGH, 1.65.

For YNHHYHTLHGNVCSFCKRAFPSGH, the protein stability index was 1.37.

Regarding YWHHYHTLHGNVCSFCKRAFPSGH, the protein stability index stood at 2.85.

For YRHHYHTLHGNVCSFCKRAFPSGH, the protein stability index turned out to be 1.8. For YFHHYHTLHGNVCSFCKRAFPSGH the value was 3.12; for YPHHYHTLHGNVCSFCKRAFPSGH, 1.54. On to YDHHYHTLHGNVCSFCKRAFPSGH, for which the protein stability index is 2.9. For the variant YKHHYHTLHGNVCSFCKRAFPSGH, the protein stability index came to 1.76. Regarding YYHHYHTLHGNVCSFCKRAFPSGH, the protein stability index was 2.27. With YGHHYHTLHGNVCSFCKRAFPSGH the figure was 2.9; with YIHHYHTLHGNVCSFCKRAFPSGH, 2.34. With YCHHYHTLHGNVCSFCKRAFPSGH the figure was 2.15; with YQHHYHTLHGNVCSFCKRAFPSGH, 2.43; with YSHHYHTLHGNVCSFCKRAFPSGH, 3.32. With YEHFYHTLHGNVCSFCKRAFPSGH the figure was 1.33; with YEHGYHTLHGNVCSFCKRAFPSGH, 2.05; with YEHAYHTLHGNVCSFCKRAFPSGH, 1.75. Regarding YEHWYHTLHGNVCSFCKRAFPSGH, the protein stability index was 1.73. With YEHTYHTLHGNVCSFCKRAFPSGH, the protein stability index was 1.95.

Turning to YEHIYHTLHGNVCSFCKRAFPSGH, the protein stability index was found to be 1.82. With YEHCYHTLHGNVCSFCKRAFPSGH the figure was 3.26; with YEHYYHTLHGNVCSFCKRAFPSGH, 1.93.

With YEHEYHTLHGNVCSFCKRAFPSGH, the protein stability index is 2.7. Take YEHSYHTLHGNVCSFCKRAFPSGH: the protein stability index was 2.43.

Consider YEHQYHTLHGNVCSFCKRAFPSGH, for which the protein stability index is 2.1. For YEHLYHTLHGNVCSFCKRAFPSGH, the protein stability index came out at 2.07. Regarding YEHVYHTLHGNVCSFCKRAFPSGH, the protein stability index is 1.91. On to YEHDYHTLHGNVCSFCKRAFPSGH, for which the protein stability index is 2.17. YEHKYHTLHGNVCSFCKRAFPSGH: the protein stability index came to 2.03. For YEHMYHTLHGNVCSFCKRAFPSGH, the protein stability index was found to be 2.52. Turning to YEHRYHTLHGNVCSFCKRAFPSGH, the protein stability index came to 1.73. For YEHNYHTLHGNVCSFCKRAFPSGH the value was 2.23; for YEHPYHTLHGNVCSFCKRAFPSGH, 2.38; for YESHYHTLHGNVCSFCKRAFPSGH, 2.6. As for YEGHYHTLHGNVCSFCKRAFPSGH, the protein stability index was determined as 3.04. For YERHYHTLHGNVCSFCKRAFPSGH the value was 2.09; for YEQHYHTLHGNVCSFCKRAFPSGH, 2.19. Consider YEVHYHTLHGNVCSFCKRAFPSGH, for which the protein stability index worked out at 2.09.

Turning to YETHYHTLHGNVCSFCKRAFPSGH, the protein stability index is 2.91. Consider YEEHYHTLHGNVCSFCKRAFPSGH, for which the protein stability index amounted to 2.9.

As to YECHYHTLHGNVCSFCKRAFPSGH, the protein stability index is 3.57.

Turning to YEIHYHTLHGNVCSFCKRAFPSGH, the protein stability index stood at 2.18. With YEFHYHTLHGNVCSFCKRAFPSGH the figure was 2.06; with YEYHYHTLHGNVCSFCKRAFPSGH, 2.23; with YEDHYHTLHGNVCSFCKRAFPSGH, 3.06. For YEPHYHTLHGNVCSFCKRAFPSGH the value was 2.8; for YELHYHTLHGNVCSFCKRAFPSGH, 2.13; for YEMHYHTLHGNVCSFCKRAFPSGH, 1.94. As for YEKHYHTLHGNVCSFCKRAFPSGH, the protein stability index worked out at 2.27. With YEAHYHTLHGNVCSFCKRAFPSGH, the protein stability index was 1.97. Turning to YEWHYHTLHGNVCSFCKRAFPSGH, the protein stability index is 2.12. Turning to YENHYHTLHGNVCSFCKRAFPSGH, the protein stability index worked out at 2.52. For WEHHYHTLHGNVCSFCKRAFPSGH the value was 2.07; for VEHHYHTLHGNVCSFCKRAFPSGH, 2.51. Turning to TEHHYHTLHGNVCSFCKRAFPSGH, the protein stability index amounted to 2.75.

On to SEHHYHTLHGNVCSFCKRAFPSGH, for which the protein stability index worked out at 3.29. In the case of NEHHYHTLHGNVCSFCKRAFPSGH, the protein stability index is 3.38. Turning to QEHHYHTLHGNVCSFCKRAFPSGH, the protein stability index came to 3.62. Consider REHHYHTLHGNVCSFCKRAFPSGH, for which the protein stability index turned out to be 2.22. PEHHYHTLHGNVCSFCKRAFPSGH: the protein stability index amounted to 2.98. As for YEHHYMTLHGNVCSFCKRAFPSGH, the protein stability index worked out at 1.6. With YEHHYFTLHGNVCSFCKRAFPSGH the figure was 1.48. For the variant YEHHYDTLHGNVCSFCKRAFPSGH, the protein stability index was found to be 2.34. Consider YEHHYETLHGNVCSFCKRAFPSGH, for which the protein stability index is 2.4. Turning to YEHHYITLHGNVCSFCKRAFPSGH, the protein stability index amounted to 2.15. With YEHHYLTLHGNVCSFCKRAFPSGH, the protein stability index was 1.72. Take YEHHYGTLHGNVCSFCKRAFPSGH: the protein stability index turned out to be 1.69. With YEHHYATLHGNVCSFCKRAFPSGH the figure was 1.88; with YEHHYKTLHGNVCSFCKRAFPSGH, 1.53.

For YEHHYCTLHGNVCSFCKRAFPSGH, the protein stability index was found to be 2.6.
